Measured values taken from US9409976B2, “CDIM binding proteins and uses thereof” (IGM BIOSCIENCES, INC., priority 2012, dated 2016).
“Also recorded” adds a separate entry of the source.

Legend:
[1] = test system: CDIM antigen on human pro-B cell line NALM-6; assay: Binding of CDIM binding proteins to CDIM antigen on NALM-6 cells, flow cytometry (MFI); settings: 1 hour on ice, non-linear regression curve fit
Procedure: This example describes how the binding properties of the disclosed antibodies were investigated. The antibodies were prepared by affinity chromatography. In FIG. 6A, the human pro-B cell line, NALM-6, which expresses the CDIM antigen on the cell surface was stained with the series of recombinant IgM antibodies. The antibodies were used to determine the dose response beginning at 20 μg/tube diluted stepwise by 2, to a final concentration at 0.039 μg. Cells were stained in a 100 μl volume in 3% FBS/PBS on ice for 1 hour followed by a subsequent staining with DyLight-488 conjugated anti-human IgM (Jackson Immuno), 1 μg/ml for 20 minutes at 4 C.
Analysis of CDIM binding was performed on FACScan flow cytometer using CellQuest analysis software. Results are shown as raw data points with Mean Fluorescence Intensity (MFI) on Y-axis and concentration of primary antibody (μg/100 μl) on X-axis.
The data were re-analyzed using GraphPad analysis program to fit the results using non-linear regression curve fit. EC50 (μg/100 μl) for each antibody was (a) 10.6 for IGM1, (b) 2.2 for IGM23, (c) 2.2 for IGM34, and (d) 1.7 for IGM36.

[2] = test system: human pro-B cell line NALM-6; assay: Cytotoxicity resulting from cellular binding, propidium iodine uptake; format: cell-based; settings: NALM-6 cells, viability after 1 hour of staining
Procedure: This example describes how the cytotoxicity of the CDIM binding proteins was investigated. The human pro-B cell line NALM-6 was stained identically as described in FIG. 6A above. In FIG. 6B, cell killing was evaluated by measuring cell viability after 1 hour of staining. […] Results are shown as raw data with % viability on Y-axis and concentration (μg/100 μl) on X-axis.
Identical results were graphed using GraphPad analysis program and data fit using non-linear regression curve fitting. The EC50 was calculated for each antibody using the same approach described above. EC50 (μg/100 μl) for each antibody was (a) 3.0 for IGM1, (b) 0.6 for IGM 23, (c) 0.6 for IGM34, and (d) 0.3 for IGM36.

Human pro-B NALM-6 cells = assay: Human complement dependent cytotoxicity (CDC) assay, CCK8; format: cell-based; settings: Nalm-6 cells with human complement, 24 hours, supernatant containing expressed antibody
Source text: “Complement-dependent cytotoxicity” or “CDC” refers to the lysis of a target cell in the presence of complement. Activation of the classical complement pathway is initiated by the binding of the first component of the complement system (CIq) to antibodies, which are bound to their cognate antigen. To assess complement activation, a CDC assay, as described in Hinton et al, J. Immunol. 2006 Jan. 1; 176(1):346-56, may be performed. Briefly, this example describes how the cytotoxicity of the CDIM binding proteins was investigated. Human pro-B NALM-6 cells (50,000) were plated in a 96-well flat bottom microtiter plate. […] After 24 hours, a colorimetric substrate CCK8 was added for 3 hours and then the optical density (OD) was measured at 450 nm wavelength on a Microtiter Plate Reader. Quantification of the increase in OD is directly proportional to viable proliferating NALM-6 cells. […] The IC50 was calculated for each antibody using the same approach as described above.
TABLE 2 summarizes the data shown in FIG. 6 and FIGS. 7A-7F for the CDIM binding proteins comprising variable heavy chains H1, H2, H3, H4, H5, H6, H7, H9, H10, H11, H12, H13, H14, H15, H16, H17, H18, H19, H20, and H21, respectively. The ELISA value refers to the concentration of IgM determined in the conditioned media following transient transfection of IgM heavy and light chains. […]

[3] = ELISA binding to non-CDIM antigen LPS; settings: maximal reaction (OD450 nm), IgM at 10 μg/ml
Procedure: (§1) This example describes the binding specificity of the CDIM binding proteins for antigens other than CDIM. The antibodies were purified by affinity chromatography. Antibodies were tested across a broad dose range against a panel of antigens available in commercially available ELISA kits. ELISA plates pre-coated with the antigens, ssDNA (Inova Diagnostics, Inc, San Diego, Calif.), dsDNA (Inova Diagnostics, Inc., San Diego, Calif.), cardiolipin (Inova Diagnostics, Inc., San Diego, Calif.) MDA-LDL (malondialdehyde modified low density lipoprotein) (Rocky Mountain Diagnostics, Colorado Springs, Colo.) were purchased from various vendors. Lipid A (Avanti Polar Lipids, Alabaster, Ala.) was purchased as an antigen, dissolved in ethanol and diluted in 100 mM Na carbonate buffer at pH 9.5 prior to coating onto ELISA plates. Anti-CDIM antibodies were used at concentrations indicated and ELISA was performed according to manufacturers recommendations. Briefly, plates were blocked with BSA-milk powder for 1 hour, followed by washing. The disclosed antibodies were added at the concentrations indicated. The antibodies were allowed to bind for 1.5 hours at room temperature followed by a wash step. The HRP-conjugated anti-human IgM antibody was added, followed by substrate addition. Results were quantified using absorbance at 450 nm (Bio-Tek Synergy HT). […]

ss DNA = assay: ELISA binding to non-CDIM antigen ssDNA; settings: maximal reaction (OD450 nm), IgM at 10 μg/ml
Procedure: as §1

ds DNA = assay: ELISA binding to non-CDIM antigen dsDNA; settings: maximal reaction (OD450 nm), IgM at 10 μg/ml
Procedure: as §1

[4] = ELISA binding to non-CDIM antigen cardiolipin; settings: maximal reaction (OD450 nm), IgM at 10 μg/ml
Procedure: as §1

[5] = ELISA binding to non-CDIM antigen chondroitin sulfate; settings: maximal reaction (OD450 nm), IgM at 10 μg/ml
[6] = ELISA binding to non-CDIM antigen heparan sulfate; settings: maximal reaction (OD450 nm), IgM at 10 μg/ml
Procedure: as §1

[7] = ELISA binding to panel of antigens other than CDIM (FIGS. 8 and 9); settings: broad dose range, absorbance at 450 nm, listed as MAb 216
Source text: FIG. 8, panels A-E depict ELISA based binding data that is representative of the CDIM binding proteins to antigens other than CDIM. Results using the antigens single stranded DNA (ssDNA), double stranded DNA (dsDNA), lipid A, cardiolipin, and maleonaldehyde LDL (MDA-LDL) are shown in panels A-E, respectively.
FIG. 9, panels A-F depict ELISA based binding data that is representative of the CDIM binding proteins to antigens other than CDIM. Results using the antigens single stranded DNA (ssDNA), double stranded DNA (dsDNA), lipopolysaccharide, cardiolipin, chondoitrin and heparan, are shown in panels A-F, respectively.
This example describes the binding specificity of the CDIM binding proteins for antigens other than CDIM. The antibodies were purified by affinity chromatography. Antibodies were tested across a broad dose range against a panel of antigens available in commercially available ELISA kits. ELISA plates pre-coated with the antigens, ssDNA (Inova Diagnostics, Inc, San Diego, Calif.), dsDNA (Inova Diagnostics, Inc., San Diego, Calif.), cardiolipin (Inova Diagnostics, Inc., San Diego, Calif.) MDA-LDL (malondialdehyde modified low density lipoprotein) (Rocky Mountain Diagnostics, Colorado Springs, Colo.) were purchased from various vendors. […] Results were quantified using absorbance at 450 nm (Bio-Tek Synergy HT).

Molecule | EC50 of CDIM binding (MFI) [1] [μg/100 μl] | EC50 of cytotoxicity (% viability) [2] [μg/100 μl] | Cytotoxicity IC50 (Human pro-B NALM-6 cells) [µg/mL] | LPS relative reactivity [3] | ss DNA relative reactivity (ss DNA) | ds DNA relative reactivity (ds DNA) | Cardiolipin relative reactivity [4] | Chondroitin Sulfate relative reactivity [5] | Heparan Sulfate relative reactivity [6] | Binding to antigens other than CDIM [7]
IGM1: IgM; heavy chain H1 (SEQ ID NO:28) with lambda light chain (SEQ ID NO:50) (antibody) heavy: QVQLQQWGAGLLKPSETLSLTCAVYGGSFSGYYWSWIRQPPGKGLEWIGEINHSGSTNYNPSLKSRVTISVDTSKNQFSLKLSSVTAADTAVYYCARGRMAWGASVNFDYWGQGTLVTVSSGSASAPTLFPLVSCENSPSDTSSVAVGCLAQDFLPDSITFSWKYKNNSDISSTRGFPSVLRGGKYAATSQVLLPSKDVMQGTDEHVVCKVQHPNGNKEKNVPLPVIAELPPKVSVFVPPRDGFFGNPRKSKLICQATGFSPRQIQVSWLREGKQVGSGVTTDQVQAEAKESGPTTYKVTSTLTIKESDWLSQSMFTCRVDHRGLTFQQNASSMCVPDQDTAIRVFAIPPSFASIFLTKSTKLTCLVTDLTTYDSVTISWTRQNGEAVKTHTNISESHPNATFSAVGEASICEDDWNSGERFTCTVTHTDLPSPLKQTISRPKGVALHRPDVYLLPPAREQLNLRESATITCLVTGFSPADVFVQWMQRGQPLSPEKYVTSAPMPEPQAPGRYFAHSILTVSEEEWNTGETYTCVVAHEALPNRVTERTVDKSTGKPTLYNVSLVMSDTAGTCY light: DIQMTQSPSTLSASVGDRVTITCTGTSSDVGGYNYVSWYQQHPGKAPKLMIYGVSNRFSGSKSGNTASLTISGLAAEDEADYYCSSYTSSSTLVVFGGGTKLTVLGQPKAAPSVTLFPPSSEELQANKATLVCLISDFYPGAVTVAWKADSSPVKAGVETTTPSKQSNNKYAASSYLSLTPEQWKSHRSYSCQVTHEGSTVEKTVAPTECS | 10.6 | 3.0 |  |  |  |  |  |  |  | 
hm216: naturally occurring human monoclonal IgM CDIM binding antibody (SEQ ID NO: 108), used as experimental reference antibody (protein) QVQLQQWGAGLLKPSETLSLTCAVYGGSFSGYYWSWIRQPPGKGLEWIGEINHSGSTNYNPSLKSRVTISVDTSKNQFSLKLSSVTAADTAVYYCARARTARGSSIFDYWGQGTLVTVSSGSASAPTLFPLVSCENSPSDTSSVAVGCLAQDFLPDSITFSWKYKNNSDISSTRGFPSVLRGGKYAATSQVLLPSKDVMQGTDEHVVCKVQHPNGNKEKNVPLPVIAELPPKVSVFVPPRDGFFGNPRKSKLICQATGFSPRQIQVSWLREGKQVGSGVTTDQVQAEAKESGPTTYKVTSTLTIKESDWLSQSMFTCRVDHRGLTFQQNASSMCVPDQDTAIRVFAIPPSFASIFLTKSTKLTCLVTDLTTYDSVTISWTRQNGEAVKTHTNISESHPNATFSAVGEASICEDDWNSGERFTCTVTHTDLPSPLKQTISRPKGVALHRPDVYLLPPAREQLNLRESATITCLVTGFSPADVFVQWMQRGQPLSPEKYVTSAPMPEPQAPGRYFAHSILTVSEEEWNTGETYTCVVAHEALPNRVTERTVDKSTGKPTLYNVSLVMSDTAGTCY |  |  | 1.762 | ++++ (The (+), (++), (+++) and (++++) scores are given for maximal ELISA values of 0.3 to 1, 1 to 2, 2 to 3 and above 3, respectively) | ++++ (The (+), (++), (+++) and (++++) scores are given for maximal ELISA values of 0.3 to 1, 1 to 2, 2 to 3 and above 3, respectively) | ++++ (The (+), (++), (+++) and (++++) scores are given for maximal ELISA values of 0.3 to 1, 1 to 2, 2 to 3 and above 3, respectively) | +++ (The (+), (++), (+++) and (++++) scores are given for maximal ELISA values of 0.3 to 1, 1 to 2, 2 to 3 and above 3, respectively) | ++++ (The (+), (++), (+++) and (++++) scores are given for maximal ELISA values of 0.3 to 1, 1 to 2, 2 to 3 and above 3, respectively) | ++++ (The (+), (++), (+++) and (++++) scores are given for maximal ELISA values of 0.3 to 1, 1 to 2, 2 to 3 and above 3, respectively) | binds to all the antigens tested; also recorded: binds to all of the antigens across a broad dose range
